Test results: patent US20110217237A1 (AbbVie / Abbott, published 2011)
Where two headings read alike, the source gives them in different places.

Tests used:
mouse DLL4 on cells [1] = molecular target: T1, mouse DLL4 on cells (mouse, UniProt Q9JI71 27-686); test: competition FACS: huNotch-1-biotin to DLL4 cells
T1 construct: whole, on cells; also called mouse DLL4-293G; mu DLL4 cells
Method: (§1) Notch blocking assay: Briefly, stable cell lines overexpressing cell-surface DLL4 were harvested from tissue culture flasks and re-suspended in phosphate buffered saline (PBS) containing 1% bovine serum albumin and 1 mM CaCl₂ (FACS buffer). HEK293G-DLL4 cells were dispensed into 96-well plate (v-bottom) at 1.5×10⁵ cells/well in FACS buffer. After spinning down cells and discarding the supernatant, 50 μL of purified IgG with appropriate dilution were added to each well, and incubated on ice at 4° C. for 60 minutes, followed by addition of 50 μL/well of Notch1-biotin at 0.2 μg/mL for human DLL4-293G or 2.0 μg/mL for mouse DLL4-293G (1.0 or 0.1 μg/mL final) for an additional 1 hour incubation ice at 4° C. After washing the cells two times with FACS buffer, 50 μL of R-phycoerythrin-conjugated streptavidin (1:150 dilution in FACS buffer) (Jackson ImmunoResearch, West Grove, Pa., Cat.#016-110-084) were added. Following an incubation on ice (4° C., 60 minutes), cells were washed three times and resuspended in FACS buffer. Fluorescence was measured using a Becton Dickinson FACSCalibur-HTS (Becton Dickinson, San Jose, Calif.). Data were analyzed using Graphpad Prism software, and IC₅₀ values were reported as the concentration of antibody to achieve 50% reduction of Notch1 bound to DLL4 expressing cells. […]

[2] = molecular target: T2, human DLL4, full length, on cells (human, UniProt Q9NR61 27-685); test: competition FACS: huNotch-1-biotin to DLL4 cells
T2 construct: also called huDLL4 cells; human DLL4-293G
T2 sequence (Q9NR61 27-685 limits assumed): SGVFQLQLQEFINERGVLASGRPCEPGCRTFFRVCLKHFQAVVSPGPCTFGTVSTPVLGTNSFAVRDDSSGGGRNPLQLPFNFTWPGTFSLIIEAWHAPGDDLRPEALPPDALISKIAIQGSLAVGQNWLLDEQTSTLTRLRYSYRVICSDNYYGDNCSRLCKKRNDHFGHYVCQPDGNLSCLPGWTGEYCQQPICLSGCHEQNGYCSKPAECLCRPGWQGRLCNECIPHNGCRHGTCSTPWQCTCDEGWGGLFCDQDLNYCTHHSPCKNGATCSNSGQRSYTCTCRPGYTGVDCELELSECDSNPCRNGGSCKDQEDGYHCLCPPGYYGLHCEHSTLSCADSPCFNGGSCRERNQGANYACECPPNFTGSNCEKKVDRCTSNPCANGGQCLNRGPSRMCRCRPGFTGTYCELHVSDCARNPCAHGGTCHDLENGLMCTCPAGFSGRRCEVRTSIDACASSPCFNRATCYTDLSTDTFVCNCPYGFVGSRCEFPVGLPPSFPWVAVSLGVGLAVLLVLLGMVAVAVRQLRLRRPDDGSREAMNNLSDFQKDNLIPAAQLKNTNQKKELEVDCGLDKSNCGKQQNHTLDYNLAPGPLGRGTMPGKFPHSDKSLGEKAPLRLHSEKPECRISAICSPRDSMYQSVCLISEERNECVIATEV
Method: as §1

[3] = molecular target: T2, human DLL4, full length, on cells; test: cell-based or functional assay
mouse DLL4 on cells [4] = molecular target: T1, mouse DLL4 on cells; test: FACS, DLL4 cells
Method: (§2) Stable cell lines overexpressing cell-surface DLL4 were harvested from tissue culture flasks, washed four times and resuspended in phosphate buffered saline (PBS) containing 1% bovine serum albumin and 1 mM CaCl₂ (FACS buffer). 1.5×10⁵ cells were incubated with antibodies at various concentrations in FACS buffer for 60 minutes on ice. […] Following an incubation on ice (4° C., 60 minutes), cells were washed three times and resuspended in FACS buffer. Fluorescence was measured using a Becton Dickinson FACSCalibur-HTS (Becton Dickinson, San Jose, Calif., US). Data were analyzed using Graphpad Prism software and EC₅₀ values were reported as the concentration of antibody to achieve 50% of maximal DLL4 antibodies binding to DLL4 expressing cells. […]

[5] = molecular target: T2, human DLL4, full length, on cells; test: FACS, DLL4 cells
Method: as §2

[6] = molecular target: T3, mouse DLL4 extracellular domain (mouse, UniProt Q9JI71 27-532); test: competition ELISA: biotin-DLL4 ECD to coated huNotch-1
T3 construct: extracellular domain; also called muDLL4 ECD; murine DLL4
T3 sequence (Q9JI71 27-532): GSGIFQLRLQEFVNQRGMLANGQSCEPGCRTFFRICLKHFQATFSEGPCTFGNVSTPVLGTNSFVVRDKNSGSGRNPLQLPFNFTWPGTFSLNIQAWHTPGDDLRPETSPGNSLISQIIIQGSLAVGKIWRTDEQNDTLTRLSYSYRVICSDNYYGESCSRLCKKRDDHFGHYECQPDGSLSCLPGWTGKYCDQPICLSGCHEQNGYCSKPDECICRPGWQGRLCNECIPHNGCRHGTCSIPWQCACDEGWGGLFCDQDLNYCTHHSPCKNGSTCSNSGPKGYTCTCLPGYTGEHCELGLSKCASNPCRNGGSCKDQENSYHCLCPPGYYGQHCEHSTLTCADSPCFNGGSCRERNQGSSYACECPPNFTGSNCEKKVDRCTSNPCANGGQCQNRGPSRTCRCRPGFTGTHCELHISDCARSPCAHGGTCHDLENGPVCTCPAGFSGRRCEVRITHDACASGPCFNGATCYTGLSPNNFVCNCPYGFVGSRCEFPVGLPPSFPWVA
Method: (§3) Plates were then washed 3 times with wash buffer (PBS, 0.05% Tween-20) and blocked with 200 μl/well blocking buffer (D-PBS, 1% BSA, 1 mM CaCl₂, 0.05% Tween-20) for 1 hour at 25° C. While blocking, biotin labeled DLL4 extracellular domain (14 nM) was mixed with antibody (30 pM-66 nM, 3-fold serial dilution in blocking buffer) for 1 hour at 25° C. with shaking. Assay plates were washed after blocking, and incubated with DLL4/antibody mixtures (100 μl/well, 1 hour at 25° C. with shaking). Plates were washed again and 100 μl/well streptavidin conjugated with HRP (Fitzgerald #65R-S104PHRPx, diluted 1:5,000 in blocking buffer) was added for 1 hour at 25° C. with shaking. After a final wash, plates were developed using 100 μl/well substrate (TMB Sigma #T8665), and the reaction was stopped using 100 μl/well 1N HCl, and the absorbance was read at 450 nm. Data were analyzed using Graphpad Prism software and IC₅₀ values were reported as the concentration of antibody to achieve 50% reduction of DLL4 bound to Notch1.
(§4) Further characterization determined 37D10 and 40B10 were identical rat mAbs.

[7] = molecular target: T4, human DLL4 extracellular domain (human, UniProt Q9NR61 27-529); test: as above
T4 construct: purified recombinant ECD; biotin-labelled or 6xHis-tagged depending on the assay; also called huDLL4 ECD; hu DLL4 ECD
T4 sequence (Q9NR61 27-529 limits assumed): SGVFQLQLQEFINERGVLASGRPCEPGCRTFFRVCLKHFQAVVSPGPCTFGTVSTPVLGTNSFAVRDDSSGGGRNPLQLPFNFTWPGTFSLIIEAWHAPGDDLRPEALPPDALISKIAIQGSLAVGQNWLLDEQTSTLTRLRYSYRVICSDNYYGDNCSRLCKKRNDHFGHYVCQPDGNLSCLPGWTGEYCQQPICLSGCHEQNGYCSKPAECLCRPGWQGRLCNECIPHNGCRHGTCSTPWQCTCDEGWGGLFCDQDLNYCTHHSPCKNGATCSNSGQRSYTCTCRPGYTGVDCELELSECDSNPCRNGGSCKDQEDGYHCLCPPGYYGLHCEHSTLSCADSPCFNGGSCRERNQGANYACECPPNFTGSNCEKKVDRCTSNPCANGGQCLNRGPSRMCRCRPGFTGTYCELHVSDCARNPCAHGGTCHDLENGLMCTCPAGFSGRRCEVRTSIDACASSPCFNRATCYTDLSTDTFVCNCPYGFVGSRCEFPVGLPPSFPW
Method: as §3, §4

[8] = molecular target: T3, mouse DLL4 extracellular domain; test: competition ELISA vs Notch-1
[9] = molecular target: T4, human DLL4 extracellular domain; test: competition ELISA vs Notch-1
[10] = molecular target: T5, cynomolgus monkey DLL4 extracellular domain (cynomolgus monkey); test: SPR (Biacore)
T5 construct: extracellular domain; also called cynoDLL4 ECD; Cyno DLL4
Method: (§5) The BIACORE® surface plasmon resonance assay (Biacore, Inc., Piscataway, N.J., US) determines the affinity of antibodies with kinetic measurements of on-rate and off-rate constants. Binding of DLL4 antibodies to a purified recombinant DLL4 extracellular domain (ECD) was determined by surface plasmon resonance-based measurements with a Biacore® instrument (either a Biacore 2000, Biacore 3000, or Biacore T100; GE Healthcare, Piscataway, N.J., US) using running buffer HBS-EPB (10 mM HEPES [pH 7.4], 150 mM NaCl, 3 mM EDTA, 0.1 mg/ml BSA and 0.005% surfactant P20) at 25° C. For example, approximately 9000 RU of goat anti-human Fc specific polyclonal antibody (Thermo Fisher Scientific Inc., Rockford, Ill., US) diluted in 10 mM sodium acetate (pH 4.5) is directly immobilized across a CMS research grade biosensor chip using a standard amine coupling kit according to manufacturer's instructions and procedures at 25 μg/ml. Unreacted moieties on the biosensor surface were blocked with ethanolamine. For kinetic analysis, rate equations derived from the 1:1 Langmuir binding model were fitted simultaneously to multiple antigen injections (using global fit analysis) with the use of Scrubber 2 (BioLogic Software), Biacore Biaevaluation 4.0.1 software or Biacore T100 Evaluation software. Purified antibodies were diluted in running buffer for capture across goat anti-human Fc reaction surfaces. Antibodies to be captured as a ligand (1 μg/ml) were injected over reaction matrices at a flow rate of 10 μl/min. During the assay, all measurements were referenced against the capture surface alone (i.e., with no captured anti-DLL4 antibody). […] The equilibrium dissociation constant KD (M) of the reaction between antibodies and the target antigen was then calculated from the kinetic rate constants by the following formula: KD=Koff/Kₒₙ. Binding was recorded as a function of time and kinetic rate constants were calculated.

[11] = molecular target: T4, human DLL4 extracellular domain; test: SPR (Biacore)
Method: as §5

[12] = molecular target: T3, mouse DLL4 extracellular domain; test: SPR (Biacore)
Method in brief: (§6)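 Purified anti-DLL4 antibodies (1 μg/ml) captured on immobilized goat anti-human Fc, with DLL4 ECD injected as analyte; HBS-EPB running buffer (pH 7.4), 25° C, referenced against capture-only surface. On/off rates from global 1:1 Langmuir fit; KD = Koff/Kon.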

[13] = molecular target: T6, rat DLL4 extracellular domain (rat, UniProt D3ZHH1 28-530); test: SPR (Biacore)
T6 construct: extracellular domain; also called ratDLL4 ECD
T6 sequence (D3ZHH1 28-530): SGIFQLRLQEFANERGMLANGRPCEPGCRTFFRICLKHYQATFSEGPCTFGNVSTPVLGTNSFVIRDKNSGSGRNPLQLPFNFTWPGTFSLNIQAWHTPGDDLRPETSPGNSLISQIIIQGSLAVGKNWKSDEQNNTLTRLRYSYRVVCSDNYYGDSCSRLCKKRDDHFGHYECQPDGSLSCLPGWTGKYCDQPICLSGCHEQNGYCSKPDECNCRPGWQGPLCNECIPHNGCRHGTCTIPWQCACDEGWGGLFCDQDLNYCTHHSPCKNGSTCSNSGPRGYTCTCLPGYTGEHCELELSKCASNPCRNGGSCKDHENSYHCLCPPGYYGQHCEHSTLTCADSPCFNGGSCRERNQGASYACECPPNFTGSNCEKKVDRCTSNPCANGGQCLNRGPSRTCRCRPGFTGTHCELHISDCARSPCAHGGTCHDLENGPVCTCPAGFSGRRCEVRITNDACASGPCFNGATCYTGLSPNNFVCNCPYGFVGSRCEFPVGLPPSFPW
Method in brief: as §6

[14] = molecular target: T4, human DLL4 extracellular domain; test: SPR (Biacore); remark: listed apart in the source
[15] = molecular target: T3, mouse DLL4 extracellular domain; test: binding ELISA, DLL4 ECD
[16] = molecular target: T4, human DLL4 extracellular domain; test: binding ELISA, DLL4 ECD
mouse DLL4 on cells [17] = molecular target: T1, mouse DLL4 on cells; test: FACS on cells expressing mouse DLL4

T1 sequence (Q9JI71 27-686): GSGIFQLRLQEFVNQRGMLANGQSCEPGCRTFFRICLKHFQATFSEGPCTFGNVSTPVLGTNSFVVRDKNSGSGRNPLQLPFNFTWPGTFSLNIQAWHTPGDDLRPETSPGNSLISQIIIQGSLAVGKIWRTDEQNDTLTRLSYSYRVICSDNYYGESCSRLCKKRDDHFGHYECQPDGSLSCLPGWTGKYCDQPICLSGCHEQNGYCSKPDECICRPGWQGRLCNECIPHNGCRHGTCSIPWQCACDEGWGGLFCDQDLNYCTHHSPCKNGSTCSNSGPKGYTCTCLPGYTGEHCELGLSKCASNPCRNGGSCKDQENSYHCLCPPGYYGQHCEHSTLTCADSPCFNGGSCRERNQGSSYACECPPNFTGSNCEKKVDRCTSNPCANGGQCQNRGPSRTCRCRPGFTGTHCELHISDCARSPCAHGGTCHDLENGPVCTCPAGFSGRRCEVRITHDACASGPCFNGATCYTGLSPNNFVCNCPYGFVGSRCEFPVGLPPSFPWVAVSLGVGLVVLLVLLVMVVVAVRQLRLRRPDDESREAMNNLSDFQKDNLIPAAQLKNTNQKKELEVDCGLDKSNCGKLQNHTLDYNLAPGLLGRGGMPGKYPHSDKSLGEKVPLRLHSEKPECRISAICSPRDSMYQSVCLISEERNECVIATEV

Binder	IC50 (mouse DLL4 on cells [1])	IC50 [2]	Notch activation Inhibition (IC50, nM), huDLL4 cell/Notch reporter cells [3]	EC50 (mouse DLL4 on cells [4])	EC50 [5]	IC50 [6]	IC50 [7]	Kd [10]	koff [10]	kon [10]	Kd [11]	koff [11]	kon [11]	Kd [12]	koff [12]	kon [12]	binding result [13]	EC50 [15]	EC50 [16]	further results
1A11 rat anti-DLL4 monoclonal antibody (antibody, rat IgG1, V domains shown, rat IgG1/K hybridoma mAb; also called MC13-1A11.2E1; 1A11 (rat mAb)) VH: EVQLVESGGGLVQPGRSMKLSCAASGFTFRNFPMAWVRQAPTRGLEWVATISSSDGTTYYRDSVKGRFTISRDNAKSTLYLQVNSLRSEDTATYYCSRGYYNSPFAYWGQGTLVTVSS VL: DIQMTQSPASLSASLGETVTIECRASEDIYSNLAWYQQKPGNSPQLLIFDTNNLADGVPSRFSGSGSGTQSSLKINSLQSEDVASYFCQQYNNYPPTFGGGTKLELKR	0.8 nM	8.4 nM	2.9 nM	0.8 nM	34.8 nM	0.79 nM	0.78 nM	8.1 nM	0.00093 s⁻¹	110000 M⁻¹ s⁻¹	5.8 nM	0.0011 s⁻¹	190000 M⁻¹ s⁻¹	23 nM	0.0029 s⁻¹	130000 M⁻¹ s⁻¹	no binding	0.11 nM	0.06 nM	IC50 [8]: 1.1 nM; IC50 [9]: 0.5 nM; Kd [14]: 6 nM
14A11 rat anti-DLL4 monoclonal antibody (antibody, rat IgG2a, V domains shown, rat IgG2a/K hybridoma mAb; also called MC13-14A11.3A4) VH: EVQLQQSGPELAKPGSSVKISCKASGYTFTNSYISWIKQTTGQGLEYVGYINTGSGGADYNEKFKGKATLTVDKSSRTAFMQLSSLTPGDSAVYYCAKSILLGSTCYFDYWGQGVLVTVSS VL: NTVLTQSPALAVSLGQRVTISCKASRSVSSPMYSYIYWYQQKPGQQPKLLIYRASTLASGVPARFSGSGSGTDFTLNIDPVEADDIATYFCQQSWSDPFTFGSGTKLEIKR	1.6 nM	205 nM	2.7 nM	2.1 nM	> 50 nM	19.8 nM	–	11.6 nM	0.0012 s⁻¹	110000 M⁻¹ s⁻¹	10.3 nM	0.0012 s⁻¹	120000 M⁻¹ s⁻¹	1.3 nM	9e-05 s⁻¹	70000 M⁻¹ s⁻¹	no binding	–	–	–

The next lines start with results.

IC50 (mouse DLL4 on cells [1])	IC50 [2]	Notch activation Inhibition (IC50, nM), huDLL4 cell/Notch reporter cells [3]	EC50 (mouse DLL4 on cells [4])	EC50 [5]	IC50 [6]	IC50 [7]	Kd [10]	koff [10]	kon [10]	Kd [11]	koff [11]	kon [11]	Kd [12]	koff [12]	kon [12]	binding result [13]	EC50 [15]	EC50 [16]	Binder	further results
–	1.7 nM	0.5 nM	–	1.2 nM	–	3.63 nM	0.4 nM	9.8e-05 s⁻¹	260000 M⁻¹ s⁻¹	0.3 nM	0.00011 s⁻¹	400000 M⁻¹ s⁻¹	–	–	–	no binding	–	0.06 nM	38H12 rat anti-DLL4 monoclonal antibody (antibody, rat IgG2a, V domains shown, rat IgG2a/k hybridoma mAb; also called MC10-38H12.2G8; 38H12 rat mAb) VH: EVQLVESGGGLVQPGRSLKLSCAASGFTFSNYGMYWIRQAPTKGLQWVAFISHGGGITYYRDSVKGRFTISRDNAKSTLYLQMDSLRSEDTATYHCAALNWELGIDYWGQGVMVTVSS VL: DIQMTQSPASLSASLGETISIECRASEDIYSNLAWYQKKSGKSPQLLIYAANRLQDGVPSRFSGSGSGTQYSLKISGMQPEDEGDYFCLQGSKFPLTFGSGTKLEIKR	binding result (mouse DLL4 on cells [17]): no binding; binding result [15]: no binding
3.8 nM	5.5 nM	–	0.7 nM	2.3 nM	3.36 nM	5.39 nM	< 617 nM	–	40000 M⁻¹ s⁻¹	484 nM	0.07 s⁻¹	140000 M⁻¹ s⁻¹	135 nM	0.0135 s⁻¹	100000 M⁻¹ s⁻¹	–	0.14 nM	0.12 nM	37D10 rat anti-DLL4 monoclonal antibody (antibody, rat IgG2a, V domains shown, rat IgG2a/k hybridoma mAb; also called 40B10; 37D10 = 40B10) VH: AVQLVESGGGLVQPKESLKISCAASGFTFSNAAMYWVRLAPGKGLEWVARIRTKPNNYATYYAESVKGRFTISRDDSKSMVYVQMDNLKTEDTAMYYCTAAPWRDSYAHVYWGQGVMVTVSS VL: DIQMTQSPPVLSASVGDRVTLSCKASQNIHKNLDWYQQKHGDAPKLLIYYTDHLQTGVPSRFSGSGSATDYTLTISSLQPEDVATYYCYQYNGGPFTFGSGTKLEIKR	–
